Experimental data published in the RNAGym collection of RNA variant scans (doi:10.1073/pnas.2313332121).
This sample holds only a part of the variants without activity.

B1: TPR 5TU (parent)
chain: GGAUCUUCUCGAUCUAACAAAAAAGACAAAUCUGCCACAAAGCUUGAGAGCAUCUUCGGAUGCAGAGGCGGCAGCCUUCGGUGGCGCGAUAGCGCCAACGUUCUCAACUAUGACACGCAAAACGCGUGCUCCGUUGAAUGGAGUUUAUCAUG

Variants of: B1
Assay: polymerase ribozyme fitness, log enrichment relative to wild type (log ratio); higher = more active; in vitro selection for triplet polymerase activity
Outline: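 Mutant libraries of each subunit of a heterodimeric triplet polymerase ribozyme were built by PCR and transcribed. Each library went through one round of in vitro selection in triplicate: annealing with biotinylated primer, partner subunit and triplets, frozen incubation at −7 °C, gel excision of extended constructs, streptavidin-bead capture and RT-PCR. Input and output libraries were Illumina-sequenced; only genotypes with ≥10 input reads and ≥1 read per output were kept. Fitness is log2(genotype enrichment/wild-type enrichment), using inverse-variance-weighted replicate averages.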

Row | Variant | polymerase ribozyme fitness (log ratio)
1 | C51U U134A | -2.32
2 | C51U U53A C96G G124U A147U | -3.84
3 | A52G U61G A73G | -2.84
4 | A52C U55A G62C G84A C105U C114U G141A C149A | ≤ -4.2
5 | A52G C75A U82A C95A | ≤ -4.2
6 | C51U C85U C96G A119C G141A | -2.65
7 | C51U G83C A106G A122U A142U | ≤ -4.2
8 | A52U C57U G83C | -3.29
9 | A52U C54A G70A A89G G92C A119C G126A G141A | ≤ -4.2
10 | A52G C114A | -3.48
11 | A52G A66C C85A A110C | ≤ -4.2
12 | A52C U111C A121C C123A U145A A150G | -3.02
13 | A52G C93U C96U G136C A138G U146A | ≤ -4.2
14 | A52G U101G | -0.16
15 | C51U U55A C76A U90C C96G G100A U101G | ≤ -4.2
16 | A52U C54U A97U | -2.56
17 | A52U G83A | -2.83
18 | A52U G67U C85A C125G | ≤ -4.2
19 | A52G G58U C87U | -2
20 | A52C G83U A106G | -2.56
21 | C51U U56A C57A C105G A122G | -2.19
22 | A52U G58C U78A A122G | ≤ -4.2
23 | C51U C69A G84U A91G G133A U144A A147U | ≤ -4.2
24 | A52G U102G G124A | -3.08

Row | Variant | polymerase ribozyme fitness (log ratio)
25 | A52G C125U | -0.198
26 | C51U U61C C76U G94C A121U C125G U145A | ≤ -4.2
27 | A52C G84U | -2.64
28 | A52C G84A | -1.32
29 | A52C G83U | -2.01
30 | A52G C54A | -0.998
31 | A52G C85A G140U | ≤ -4.2
32 | C51U G141C | -0.423
33 | A52C U53A G86A C87U C105A A106U | ≤ -4.2
34 | A52G U53A C54U C93G G112U | ≤ -4.2
35 | A52G U82C G92U C93U G126A | -1.76
36 | C51U U56A C87A C95U C118A U139C | ≤ -4.2
37 | C51U C96U G124A | -0.0401
38 | A52C U101G | -1.56
39 | A52C U55G G58C G59A A66C | ≤ -4.2
40 | A52U G83A C118U A121C | -2.33
41 | A52G A60C | -1.96
42 | C51U C95G C105U U145A | -1.72
43 | A52G C105A C123A G133U U144G | ≤ -4.2
44 | A52C C85U U102C | -2.57
45 | A52G C96U | -1.46
46 | A52G G84A C118U C123G | -1.29
47 | C51U C95U U104G U144A | -2.33
48 | A52C C85A A121G | -1.8

Row | Variant | polymerase ribozyme fitness (log ratio)
49 | A52G U135G U139C A147C | ≤ -4.2
50 | C51U C93A A150U | -0.998
51 | A52C A60C C79U C93A G152U | ≤ -4.2
52 | A52U G59C A91U | ≤ -4.2
53 | A52C C85U G94C G141C | -3.45
54 | C51U C95G A110U G141U | ≤ -4.2
55 | C51U C54U C85A A98U | -2.81
56 | A52G A73G C85U | -0.163
57 | A52G G71U C96U | -4.1
58 | A52C A97U | -1.59
59 | A52C A73G C85A | -3.88
60 | A52G U56G A60C C85G G143U | ≤ -4.2
61 | A52C C57U G133U | ≤ -4.2
62 | A52G C85U G86U C118G U144C C149G | ≤ -4.2
63 | A52G U104G | -1.26
64 | A52U A91U A115G C131U | ≤ -4.2
65 | A52G C63U C93U | -1.7
66 | A52C A110G A150G | -3.86
67 | C51U G86U | -1.45
68 | C51U G86A | -2.13
69 | C51U G65C C87U | ≤ -4.2
70 | A52U G86U U104C | -3.56
71 | C51U C54U C76A G86A | -2.96
72 | A52U A73C G83C G84A G92U C123G | ≤ -4.2

Row | Variant | polymerase ribozyme fitness (log ratio)
73 | C51U C75U C118U | -1.3
74 | A52C G74C C108U A113G U145G | ≤ -4.2
75 | C51U U53A U61A A97C G140A G143A | ≤ -4.2
76 | A52U C93U A119U G124U | -3.24
77 | A52C U77G C79U C87A C95U | ≤ -4.2
78 | A52G C87U C93U C131A G136A G143C U145G U146G | ≤ -4.2
79 | A52G A121C | -0.337
80 | A52G C57A G92U | -0.753
81 | A52G U53A C57A A73U C87G C93A C132U A150C | ≤ -4.2
82 | A52G G58U A66G G70U G92A G100A C116A U148A | ≤ -4.2
83 | A52C C85G C87U G133A G143C | -4.07
84 | A52G C63U C93U U145G C149U | -4.11
85 | A52G U55A A91C A97U G112A A150U | ≤ -4.2
86 | A52C C96G | -1.36
87 | A52C C96A | -1.55
88 | A52C G62C A120G G140U | -4.1
89 | A52U G83A U90C A106U U127A | ≤ -4.2
90 | C51U C85G A115C | -1.9
91 | A52U C96U U101G U145G | -4.1
92 | A52C G67C A89C A106G A107G | ≤ -4.2
93 | A52U U53A C57A G86A | -1.31
94 | A52C A60G | -0.764
95 | A52C C87A G92C G141A | ≤ -4.2
96 | A52C G58C A91U A121U | ≤ -4.2

Row | Variant | polymerase ribozyme fitness (log ratio)
97 | A52G U56G C85A C131U A137G | -3.95
98 | C51U G67A C72A C123U C132A U134C | ≤ -4.2
99 | C51U U53G A119U G143C | ≤ -4.2
100 | A52G C96U U101A A142U A150G | ≤ -4.2
101 | A52C C96U U130A U144G A147C | -3.6
102 | A52C U55A U82C | -2.36
103 | A52C U148A | -4.18
104 | A52C U53A | -3.29
105 | A52C C57U C63A C72G U77A C85A A107U A122U G136C U148A | ≤ -4.2
106 | A52C A64G C85U U145G | ≤ -4.2
107 | A52C A113C | -3.36
108 | A52C A113U | -3.88
109 | A52G U104A A122G U139G | -1.23
110 | A52C G58U G65U C69A G80C C103A C108G | ≤ -4.2
111 | C51U C93G U130C U145A | -3.53
112 | C51U G83U | -0.266
113 | A52G U78C A89U | -1.24
114 | C51U C96A C105A C118U | -2.94
115 | A52G A137C | -3.28
116 | A52U G92U C105A | -3.93
117 | A52G G71U | -2.58
118 | A52U G81A C87A A97U U104G G126C U134G G136C | ≤ -4.2
119 | C51U C96G U144A | -1.45
120 | A52U C54G | -2.21

Row | Variant | polymerase ribozyme fitness (log ratio)
121 | A52U C54U | -1.2
122 | A52C C85U A147G | -3.76
123 | C51U C93A | -2.34
124 | C51U C93U | -2.53
125 | A52U G86U C105U | -1.83
126 | A52G C57G A73U G84A | -3.44
127 | A52G G84A C116G | -2.02
128 | A52C A89U C96G G141U | -1.47
129 | A52G C93G C96U U104C A150G | ≤ -4.2
130 | C51U G59C C72A | ≤ -4.2
131 | A52C C75U A97U U109G C114A | -3.53
132 | C51U C69U C96G | -3.06
133 | A52G C75A G84U A110U | ≤ -4.2
134 | A52C A91U U148A | ≤ -4.2
135 | A52C U56C C57A G67A C85U A97U U146G U151G | ≤ -4.2
136 | A52G C76U C85G C123A U144G | -0.879
137 | A52G G100U A106U | ≤ -4.2
138 | A52G A60U C85A G94U C96G | -3.93
139 | A52C U55A C85G C116A | -3.78
140 | A52C U55A A66C C79G G133U A137G | ≤ -4.2
141 | A52G G81A G83A A98U | -1.22
142 | A52C C54A A89G G117A | -3.55
143 | A52U G83A C95U | -3.78
144 | A52C G94C A106G | -1.86

Row | Variant | polymerase ribozyme fitness (log ratio)
145 | A52U C69U G83C C116G | -4.13
146 | A52C C57U G81C | -1.59
147 | A52C C116G | -1.21
148 | A52U A73G U102C | ≤ -4.2
149 | A52G A150G | -2.55
150 | A52U C118U U146G | -3.62
151 | A52U C57A C95A A97U | -2.33
152 | C51U C85U G140C | ≤ -4.2
153 | C51U G58A | -1.32
154 | A52G C93G G141C | -3.74
155 | A52C G86C | -4.07
156 | A52C G86A | -1.2
157 | A52U A89G | -3.14
158 | A52G G74C C96U U144G | ≤ -4.2
159 | C51U G92C U135C | -3.1
160 | A52C U55G | -3.84
161 | A52G U56G G83A | -2.85
162 | C51U C87U A121U | -0.813
163 | C51U C57A G83C A106G | -0.97
164 | C51U C96U C105U | 0.0676
165 | A52U C125U | -1.42
166 | A52U A73U A89C G92C C129G A137U | ≤ -4.2
167 | A52G C79U G92A C116G | ≤ -4.2
